In US20030162714A1 (Pfizer, published 2003):

Biological target: T1, recombinant purified GDF-8 (UniProt O14793 267-375, limits assumed)
T1 sequence (looked up): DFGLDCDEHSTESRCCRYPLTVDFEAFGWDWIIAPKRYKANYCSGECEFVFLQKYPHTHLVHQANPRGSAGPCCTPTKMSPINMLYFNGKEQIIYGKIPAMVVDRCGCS
Assay: cell-based or functional assay

B1: mouse GASP1 cloned with a C-terminal V5-His tag (GASP1-V5-His) (other, not shown: small tags and cut ends)
chain: LPPIRYSHAGICPNDMNPNLWVDAQSTCKRECETDQECETYEKCCPNVCGTKSCVAARYMDVKGKKGPVGMPKEATCDHFMCLQQGSECDIWDGQPVCKCKDRCEKEPSFTCASDGLTYYNRCFMDAEACSKGITLSVVTCRYHFTWPNTSPPPPETTVHPTTASPETLGLDMAAPALLNHPVHQSVTVGETVSFLCDVVGRPRPELTWEKQLEDRENVVMRPNHVRGNVVVTNIAQLVIYNVQPQDAGIYTCTARNVAGVLRADFPLSVVRGGQARATSESSLNGTAFPATECLKPPDSEDCGEEQTRWHFDAQANNCLTFTFGHCHHNLNHFETYEACMLACMSGPLATCSLPALQGPCKAYVPRWAYNSQTGLCQSFVYGGCEGNGNNFESREACEESCPFPRGNQHCRACKPRQKLVTSFCRSDFVILGRVSELTEEQDSGRALVTVDEVLKDEKMGLKFLGREPLEVTLLHVDWTCPCPNVTVGETPLIIMGEVDGGMAMLRPDSFVGASSTRRVRKLREVMYKKTCDVLKDFLGLQ
  IC50 for inhibition of GDF-8 in the reporter gene assay ((CAGA)12 luciferase, RD cells, 20 ng/ml GDF-8): ~3 nM
